Here are results for 41 variants from the RNAGym collection of RNA variant scans (doi:10.7554/elife.90254).

To fix the notation:
B1: OR4K15 (parent)
chain: GUUAACGGUCAUAGGCCAUGGAAACUAGGAGCACCAUUUCGCUGCCAGUGAAGAAAUGAACAAAGAAAAUCUGGGCCAGGCAGGCAUCAAAAGAAAUAGUCUUGCGCUCAACCAGAAAGUCUGUAAUCAUUUUAAGGGUA

The data set covers variants of B1. As to the kind of experiment: self-cleavage, relative activity (ratio to wild type); higher = more cleavage; in vitro, sequencing; the parent is a self-cleaving ribozyme.
As to GUUAACGGCCAUAGGCCAUGGAAACUAGGAGCACCAUUUCGCUGCCAGUGAAGAAAUGAACAAAGAAAAUCUGGGCCAGGCAGGCAUCAAAAGAAAUAGCCUUGCGCUCAACCAGAAAGUCUGUAAUCAUUUUAAGGGUA, the self-cleavage was found to be 2.18.

In the case of GUUAACGGGCAUAGGCCAUGGAAACUAGGAGCACCAUUUCGCUGCCAGUGAAGAAAUGAACUAAGAAAAUCUGGGCCAGGCAGGCAUCAAAAGAAAUAGUCUUGCGCUCAACCAGAAAGUCUGUAAUCAUUUUAAGGGUA, the self-cleavage stood at 0.44.

Regarding GUUAACGGGCAUAGGCCAUGGAAACUAGGAGCACCAUUUCGCUGCCAGUGAAGAAAUGAACAAAGAAAAUCUGGGCCAGGCAGGCAUCAAAAGAAAUAGUCCUGCGCUCAACCAGAAAGUCUGUAAUCAUUUUAAGGGUA, the self-cleavage was 2.28.

As for GUUAACGGGCAUAGGCCAUGGAAACUAGGAGCACCAUUUCGCUGCCAGUGAAGAAAUGAACAAAGAAAAUCUGGGCCAGGCAGGCAUCAAUAGAAAUAGUCUUGCGCUCAACCAGAAAGUCUGUAAUCAUUUUAAGGGUA, the self-cleavage is 1.26.

On to GUUAACGGGCAUAGGCCAUGGAAACUAGGAGCACCAUUUCGCUGCCAGUGAAGAAAUGAACAAAGAAAAUCUGGGCCAGGCAAGCAUCAAAAGAAAUAGUCUUGCGCUCAACCAGAAAGUCUGUAAUCAUUUUAAGGGUA, for which the self-cleavage turned out to be 1.07.

As to GUUAACGGCCAUAGGCCAUGGAAACUAGGAGCACCAUUUCGCUGCCAGUGAAGAAAUGAACAAAGAAAAUCUGGGCCAGGCAGGCAUCAAAAGAAAUAGUCUUGCGCUCAACCAGAAAGUCUGUAAUCAUUGUAAGGGUA, the self-cleavage came out at 1.94.

On to GUUAACGGCCAUAGGCCAUGGAAACUAGGAGCACCAUUUCGCUGCCAGUGAAGAAAUGAACAAAGAAAAUCUGGGCCAGGCAGGCAUCAAAAGAAAUAGUCUUGCGCUCAACCAGAAAGUCUGUAAUCAUUCUAAGGGUA, for which the self-cleavage was found to be 1.45.

As for GUUAACGGGCAUAGGCCAUGGAAACUAGGAGCACCAUUUCGCUGCCAGUGAAGAAAUGAACAAAGAAAAUCUGGGCCGGGCAGGCAUCAAAAGAAAUAGUCUUGCGCUCAACCAGAAAGUCUGUAAUCAUUUUAAGGGUA, the self-cleavage stood at 0.26.

With GUUAACGGCCAUAGGCCAUGGAAACUAGGAGCACCAUUUCGCUGCCAGUGAAGAAAAGAACAAAGAAAAUCUGGGCCAGGCAGGCAUCAAAAGAAAUAGUCUUGCGCUCAACCAGAAAGUCUGUAAUCAUUUUAAGGGUA, the self-cleavage came to 1.6.

For GUUAACGGGCAUAGGCCAUGGAAACUAGGAGCACCAUUUCGCUGCCAGUGAAGAAAUGAACAAAGAAAAUCUGGGCCAGGCAGGCAUCAAAAGAGAUAGUCUUGCGCUCAACCAGAAAGUCUGUAAUCAUUUUAAGGGUA, the self-cleavage was found to be 0.99.

Consider GUUAACGGCCAUAGGCCAUGGAAACUAGGAGCACCAUUUCGCUGCCAGUGAAGAAAUGAACAAAGAAAAUCAGGGCCAGGCAGGCAUCAAAAGAAAUAGUCUUGCGCUCAACCAGAAAGUCUGUAAUCAUUUUAAGGGUA, for which the self-cleavage was 0.43.

As to GUUAACGGCCAUAGGCCAUGGAAACUAGGAGCACCAUUUCGCUGCCAGUGAAGAAAUGAACAAAGAAAAUCUGGGCCAGGCAGGCAUCAAAAGAAAUAGUCUUGCGCUCAACCAGAAAGUCCGUAAUCAUUUUAAGGGUA, the self-cleavage was 1.15.

As for GUUAACGGCCAUAGGCCAUGGAAACUAGGAGCACCAUUUCGCCGCCAGUGAAGAAAUGAACAAAGAAAAUCUGGGCCAGGCAGGCAUCAAAAGAAAUAGUCUUGCGCUCAACCAGAAAGUCUGUAAUCAUUUUAAGGGUA, the self-cleavage was determined as 1.48.

Turning to GUUAACGGCCAUAGGCCAGGGAAACUAGGAGCACCAUUUCGCUGCCAGUGAAGAAAUGAACAAAGAAAAUCUGGGCCAGGCAGGCAUCAAAAGAAAUAGUCUUGCGCUCAACCAGAAAGUCUGUAAUCAUUUUAAGGGUA, the self-cleavage was 2.03.

On to GUUAACGGGCAUAGGCCAUGGAAACUAGGAGCACCAUUUCGCUGCCAGUGAAGAAAAGAACAAAGAAAAUCUGGGCCAGGCAGGCAUCAAAAGAAAUAGUCUUGCGCUCAACCAGAAAGUCUGUAAUCAUUUUAAGGGUA, for which the self-cleavage was found to be 0.51.

Take GUUAACGGCCAUAGGCCAUGGAAACUAGGAGCACCAUUUCGCUGCCAGUGAAGAAAUGAACAAAGAAAAUCUGGGCCAGGCAGGCAUCAAAAGAAAUAGUCUUGCGCUCAACCAGAAAGUCUGUAACCAUUUUAAGGGUA: the self-cleavage was found to be 1.44.

With GUUAACGGCCAUAGGCCAUGGAAACUAGGAGCACCAUUUCGCUGCCAGUGAAGAAAUGAACAAAGAAAAUCUGGGCCAGGCAGGCAUCAAAAGAAAUAGUCUUGCGCUCAACCAGAAAGUCUGUAAACAUUUUAAGGGUA, the self-cleavage was 2.67.

Turning to GUUAACGGGCAUAGGCCAUGGAAACUAGGAGCACCAUUUCGCUGCCAGUGAAGAAAUGAACAAAGAAAAUCUGGGCCAGGCAGGCAUCAAAAGAAGUAGUCUUGCGCUCAACCAGAAAGUCUGUAAUCAUUUUAAGGGUA, the self-cleavage stood at 1.46.

Regarding GUUAACGGGCAUAGGCCAUGGAAACUAGGAGCACCAUUUCGCUGCCAGUGAAGAAAUGAACAAAGAAAAUCUGGGCCAGGCAGGCAUCAAAAGAAAUAGUCUUGCGCUCAACCAGAAAGUCUGUAAUCAUUUUAAGGGUA, the self-cleavage amounted to 0.92.

As for GUUAACGGGCAUAGGCCAUGGAAACCAGGAGCACCAUUUCGCUGCCAGUGAAGAAAUGAACAAAGAAAAUCUGGGCCAGGCAGGCAUCAAAAGAAAUAGUCUUGCGCUCAACCAGAAAGUCUGUAAUCAUUUUAAGGGUA, the self-cleavage amounted to 0.34.

With GUUAACGGCCAUAGGCCAUGGAAACUAGGAGCACCAUUUCGCUGCCAGUGAAGAAAUGAACAAAGAAAAUCUGGGCCAGGCAGGCAUCAAAAGAAAUAGUCUUGCGCUCAACCAGAAAGUCUGUAAUCACUUUAAGGGUA, the self-cleavage stood at 1.05.

For the variant GUUAACGGCCAUAGGCCAUGGAAACUAGGAGCACCAUUUCGCUGCCAGUGAAGAAAUGAACAAAGAAAAUCUGGGCCAGGCAGGCAUCAAAAGAAAUAGUCUUGCGCCCAACCAGAAAGUCUGUAAUCAUUUUAAGGGUA, the self-cleavage turned out to be 0.02.

As for GUUAACGGCCAUAGGCCAUGGAAACUAGGAGCACCAUUUCGCUGCCAGUGAAGAAAUGAACAAAGAAAAUCUGGGCCAGGCAGGCAUCAAAAGAAAUAGUCUUGCGCGCAACCAGAAAGUCUGUAAUCAUUUUAAGGGUA, the self-cleavage amounted to 0.06.

With GUUAACGGGCAUAGGCCAUGGAAACUAGGAGCACCAUUUCGCUGCCAGUGAAGAAAUGAACAAAGAAAAUCAGGGCCAGGCAGGCAUCAAAAGAAAUAGUCUUGCGCUCAACCAGAAAGUCUGUAAUCAUUUUAAGGGUA, the self-cleavage is 0.19.

Take GUUAACGGCCAUAGGCCAUGGAAACUAGGAGCACCAUUUCGCUGCCAGUGAAGAAAUGAACAAAGAAAAUCUGGGCCAGGCAGGCAUCAAAAGAAAUAGUCUUGCGCUCAACCAGAAAGUCUGUAAUCAUUUUAAGGGCA: the self-cleavage amounted to 2.45.

On to GUUAACGGGCAUAGGCCAUGGAAACUAGGAGCACCAUUUCGCUGCCAGUGAAGGAAUGAACAAAGAAAAUCUGGGCCAGGCAGGCAUCAAAAGAAAUAGUCUUGCGCUCAACCAGAAAGUCUGUAAUCAUUUUAAGGGUA, for which the self-cleavage came to 1.44.

In the case of GUUAACGGCCAUAGGCCAUGGAAACUAGGAGCACCAUUUCGCUGCCAGUGAAGAAAUGAACAAAGAAAAUCUGGGCCAGGCAGGCAUCAAAAGAAAUAGUCUUGCGCUCAACCAGAAAGUCUGUAAUCAUCUUAAGGGUA, the self-cleavage is 1.7.

On to GUUAACGGGCAUAGGCCAUGGAAACUAGGAGCACCAUUUCGCUGCCAGUGAAGAAAUGAACAAAGAAAAUCUGGGCCAGGCAGGCAUCAAAAGAAAUAGUCUUGCGCUCAACCAGAAAGUCUGUAAUCAUUUUAUGGGUA, for which the self-cleavage is 0.85.

In the case of GUUAACGGCCAUAGGCCAUGGAAACUAGGAGCACCAUUUCGCUGCCAGUGAAGAAAUGAACAAAGAAAAUCUGGGCCAGGCAGGCAUCAAAAGAAAUAGUCUUGCGCUCAACCAGAAAGGCUGUAAUCAUUUUAAGGGUA, the self-cleavage was 1.39.

On to GUUAACGGGCAUAGGCCAUGGAAACUAGGAGCACCAUUUCGCUGCCAGUGAAGAAAUGAACAAAGAAAAUCUGGGCCAGGCAGGCAUCAAAAGAAAUAGUCUUGCGCUCAACCAGAGAGUCUGUAAUCAUUUUAAGGGUA, for which the self-cleavage was 2.41.

In the case of GUUAACGGGCAUAGGCCAUGGAAACUAGGAGCACCAUUUCGCUGCCAGUGAAGAAAUGAACAAAGAAAAUCUGGGCCAGGCAGGCAUCAAAAGAAAUAGUCUUGCGCUCAACCAGACAGUCUGUAAUCAUUUUAAGGGUA, the self-cleavage was 0.41.

As to GUUAACGGGCAUAGGCCAUGGAAACUAGGAGCACCAUUUCGCUGCCAGUGAAGAAAUGAACAAAGAAAAUCUGGGCCAGGCAGGCAUCAAAAGAAAUAGCCUUGCGCUCAACCAGAAAGUCUGUAAUCAUUUUAAGGGUA, the self-cleavage worked out at 1.91.

As for GUUAACGGGCAUAGGCCAUGGAAGCUAGGAGCACCAUUUCGCUGCCAGUGAAGAAAUGAACAAAGAAAAUCUGGGCCAGGCAGGCAUCAAAAGAAAUAGUCUUGCGCUCAACCAGAAAGUCUGUAAUCAUUUUAAGGGUA, the self-cleavage came to 1.4.

As to GUUAACGGUAAUAGGCCAUGGAAACUAGGAGCACCAUUUCGCUGCCUGUGAAGAAAUGAACAAAGAAAAUCUGGGCCAGGCAGGCAUCAAAAGAAAUAGUCUUGCGCUCAACCAGAAAGUCUGUAAUCAUUUUAAGGGUA, the self-cleavage stood at 1.

As for GUUAACGGCCAUAGGCCAUGGAAACUAGGAGCACCAUUUCGCUGCCAGUGAAGAAAUGAACAAAGAAAAUCUGGGCCAGGCAGGCAUCAAAAGAAAUAGUCUUGCGCUCAACCAGAAAGUCUGUAAUCAUUUUAAAGGUA, the self-cleavage was determined as 2.13.

Take GUUAACGGGCAUAGGCCAUGGAAACUAGGAGCACCAUUUCGCUGCCAGUGAAGAAAUGAACAAAGAAAAUCUGGGCCAGGCAGGCAUCGAAAGAAAUAGUCUUGCGCUCAACCAGAAAGUCUGUAAUCAUUUUAAGGGUA: the self-cleavage was 1.46.

Consider GUUAACGGGCAUAGGCCAUGGAAACUAGGAGCACCAUUUCGCUGCCAGUGAAGAAAUGAACAAAGAAAAUCUGGGCCAGGCAGGCAUCAAAAGAAAUAGUCUUGCGCUCAACCAGAAAAUCUGUAAUCAUUUUAAGGGUA, for which the self-cleavage is 1.48.

In the case of GUUAACGGCCAUAGGCCAUGGAAACUAGGAGCACCAUUUCGCUGCCAGUGAAGAAAUGAACAAAGAAAAUCUGGGCCAGGCAGGCAUCAAAAGAAAUAGUCUCGCGCUCAACCAGAAAGUCUGUAAUCAUUUUAAGGGUA, the self-cleavage turned out to be 1.13.

In the case of GUUAACGGCCAUAGGCCAUGGAAACUAGGAGCACCAUUUCGCUGCCAGUGAAGAAAUGAACAAAGAAAAUCUGGGCCAGGCAGGCAUCAAAAGAAAUAGUCUAGCGCUCAACCAGAAAGUCUGUAAUCAUUUUAAGGGUA, the self-cleavage amounted to 1.9.

As for GUUAACGGCCAUAGGCCAUGGAAACUAGGAGCACCAAUUCGCUGCCAGUGAAGAAAUGAACAAAGAAAAUCUGGGCCAGGCAGGCAUCAAAAGAAAUAGUCUUGCGCUCAACCAGAAAGUCUGUAAUCAUUUUAAGGGUA, the self-cleavage was determined as 2.35.

On to GUUAACGGCCAUAGGCCAUGGAAACUAGGAGCACCAUGUCGCUGCCAGUGAAGAAAUGAACAAAGAAAAUCUGGGCCAGGCAGGCAUCAAAAGAAAUAGUCUUGCGCUCAACCAGAAAGUCUGUAAUCAUUUUAAGGGUA, for which the self-cleavage came out at 2.11.
